Data reported in US6348573B1, “Compositions and methods for identifying apoptosis signaling pathway inhibitors and activators” (The Regents of the University of Michigan, priority 1998, dated 2002).

Assays:
[1] = test system: 293T cells; test: Apoptosis assay, CIDE transfection; assay type: cell-based, human; conditions: 293T cells
Experimental: Apoptosis Assays, fluorescence staining of nuclear DNA and DNA fragmentation assay: 5×10^5 293T cells were co-transfected with 0.2 μg of pcDNA3-β-gal plus each expression plasmid in triplicate by the calcium phosphate method as reported [N. Inohara et al, “CLARP, a death effector domain-containing protein interacts with caspase-8 and regulates apoptosis,” Proc. Natl. Acad. Sci. USA 94:10717-10722 (1997a)].
MCF7 were cotransfected with vector control or CIDE-A and β-galactosidase-expressing reporter construct by Lipofectamine (Gibco BRL) according to the manufacturer's instructions. In some experiments, 20 μM zVAD-fmk (benzyloxycarbonyl-Val-Ala-Asp-(OMe)-fluoromethylketone), zFA-fmk (benzyloxycarbonyl-Phe-Ala-(OMc)-fluoromethylketone) and zDEVD-fmk (benzyloxycarbonyl-Asp-Glu-Val-Asp-(OMe)-fluoromethylketone) were added into medium at 8 hr after transfection. zFA-fmk, zVAD-fmk and zDEVD-fmk were obtained from Enzyme Systems. At 24 hours after transfection, cells were fixed, stained for β-galactosidase as described [N. Inohara et al., “CLARP, a death effector domain-containing protein interacts with caspase-8 and regulates apoptosis,” Proc. Natl. Acad. Sci. USA 94:10717-10722 (1997a)] and assayed for morphological features of apoptosis. At least 300 hundred blue-staining cells were counted. Statistical significance was determined by one-way ANOVA followed by Student-Neuman-Keuls post-doc comparisons.
(§1) Nuclear staining with acridine-orange was performed as described [N. Inohara et al., “harakiri, a novel regulator of cell death, encodes a protein that activates apoptosis and interacts selectively with survival-promoting proteins Bcl-2 and Bcl-XL.,” EMBO J. 16:1686-1694 (1997b)]. Genomic DNA was extracted and analyzed for DNA fragmentation as described [X. Liu et al., “Apaf-1, a human protein homologous to C. elegans CED-4, participates in cytochrome c-dependent activation of caspase-3,” Cell 90:405-413 (1997)].

[2] = test system: SHEP cells; test: Apoptosis in SHEP cells; assay type: cell-based; conditions: data not shown
[3] = test system: 293T cells; test: DNA fragmentation assay; assay type: cell-based, human; conditions: co-expression
Experimental: as §1

Molecule | induction of apoptosis (killing) of 293T cells by expression [1] | induction of apoptosis in SHEP cells [2] | apoptosis induced by CLARP ([1]; co-expression) | apoptosis induced by Fas ([1]; co-expression) | apoptosis of the CIDE-A (108-199) mutant ([1]; co-expression) | killing activity of CIDE-A ([1]; co-expression) | killing activity of CIDE-B ([1]; co-expression) | DNA fragmentation induced by CIDE-A [3]
CIDE-B: cell death-inducing DFF45-like effector B, mouse protein of 219 amino acids (protein, listed as Mus musculus) MEYLSAFNPNGLLRSVSTVSSELSRRVWNSAPPPQRPFRVCDHKRTVRKGLTAASLQELLDKVLETLLLRGVLTLVLEEDGTAVDSEDFFQLLEDDTCLMVLEQGQSWSPKSGMLSYGLGREKPKHSKDIARITFDVYKQNPRDLFGSLNVKATFYGLYSMSCDFQGVGPKRVLRELLRGTSSQLQGLGHMLLGISSTLRHVVEGADRWQWHGQRHLHS | induced significant killing of 293T cells in a dose dependent manner | induced apoptosis |  |  |  |  |  | 
DFF45: 45 kDa subunit of the DNA fragmentation factor (protein, UniProt O00273 1-331, looked up) DNA fragmentation factor …: MEVTGDAGVPESGEIRTLKPCLLRRNYSREQHGVAASCLEDLRSKACDILAIDKSLTPVTLVLAEDGTIVDDDDYFLCLPSNTKFVALASNEKWAYNNSDGGTAWISQESFDVDETDSGAGLKWKNVARQLKEDLSSIILLSEEDLQMLVDAPCSDLAQELRQSCATVQRLQHTLQQVLDQREEVRQSKQLLQLYLQALEKEGSLLSKQEESKAAFGEEVDAVDTGISRETSSDVALASHILTALREKQAPELSLSSQDLELVTKEDPKALAVALNWDIKKTETVQEACERELALRLQQTQSLHSLRSISASKASPPGDLQNPKRARQDPT | did not induce apoptosis |  | inhibited | inhibited | not inhibited | inhibited significantly | inhibited significantly | inhibited
